The results in this text go back to PMC6929169, “Functional Characteristics of Caffeoyl Shikimate Esterase in Larix Kaempferi and Monolignol Biosynthesis in Gymnosperms” (International Journal of Molecular Sciences, 2019).

Substrate in the data set: O=C(/C=C/c1ccc(O)c(O)c1)O[C@@H]1CC(C(=O)O)=C[C@@H](O)[C@H]1O
Briefly: HPLC-MS of caffeic acid formed, Michaelis-Menten fit. As to conditions: 100 mM NaPO4 buffer pH 6.0, 500 μM dithiothreitol, 0–320 μM substrate, 1 μg enzyme in 100 μL, temperature of kinetics not given. Format: biochemical, Larix kaempferi.

B1: LkCSE (Larix kaempferi) (protein)
chain: MSAVEKPAAPPNFWGEMPEEEYYASQGVKNHQERFETPHGILFTQSWIPIEGPVKGIVCMTHGYGSDTGWLFQKISITYAQWGYAVFGADLLGHGRSDGLRCYMGDMEKIAAASLFFFKAMRDSEPYKGLPAFLFGESMGGATTLLMYFQDPDGWSGLIFSAPLFVMPEPMKPSWWRLTAYGLLFGLADTWAVMPDNKMVKKAIKDPEKLKIIASNPRRYTGPPRVGTMRELCRICAFFQENFEKVTIPFLTCHGTSDEVTAPQSSTDLYEKAKSEDKTLKLYDDMYHSLIQGEPDENANQVLADMREWLDARASRTSS
Broadly, the Km is the concentration of substrate that gives half-maximal velocity. Regarding B1, the Km is 82.08 µM.
